Like-named read-outs stand apart in the source and are kept apart here.
Columns and labels:
SARS-CoV-2 Spike RBD [1] = target: T1, SARS-CoV-2 Spike RBD (SARS-CoV-2, UniProt P0DTC2 319-541); conditions: protein: commercial; tags: C-terminal 6xHis; label: 5'-FAM
SARS-CoV-2 Spike RBD [2] = target: T1, SARS-CoV-2 Spike RBD

B1: FAM-Aptamer (ssDNA)
DNA: CAGCACCGACCTTGTGCTTTGGGAGTGCTGGTCCAAGGGCGTTAATGGACA
binding result (SARS-CoV-2 Spike RBD [1]): binds

B2: Aptamer (ssDNA)
DNA: B1 DNA
binding result (SARS-CoV-2 Spike RBD [2]): binds

— PMC10052277, “Detection of SARS-CoV-2 receptor binding domain using fluorescence probe and DNA flowers enabled by rolling circle amplification”
